Bridges are numbered along the chain shown (N, C = ends). Primed or numbered codes have the meaning given here. Where no end group is shown, it is not given here. Side-chain parts run from the residue outwards. [ ]: non-standard residue; d: D form. maleimide = maleimide group on activated PEG, it reacts with the Cys thiol (Michael addition) to give a thioether linkage; PEG 40 kDa″ = polyethylene glycol of 40 kDa covalently attached to the side chain; PEG 40 kDa = PEG (40 kDa) covalently attached to Cys; Aib = CC(C)(N)C(=O)O

First the molecules themselves.
T1: GIP receptor (UniProt P48546 22-466)
T1 sequence (looked up): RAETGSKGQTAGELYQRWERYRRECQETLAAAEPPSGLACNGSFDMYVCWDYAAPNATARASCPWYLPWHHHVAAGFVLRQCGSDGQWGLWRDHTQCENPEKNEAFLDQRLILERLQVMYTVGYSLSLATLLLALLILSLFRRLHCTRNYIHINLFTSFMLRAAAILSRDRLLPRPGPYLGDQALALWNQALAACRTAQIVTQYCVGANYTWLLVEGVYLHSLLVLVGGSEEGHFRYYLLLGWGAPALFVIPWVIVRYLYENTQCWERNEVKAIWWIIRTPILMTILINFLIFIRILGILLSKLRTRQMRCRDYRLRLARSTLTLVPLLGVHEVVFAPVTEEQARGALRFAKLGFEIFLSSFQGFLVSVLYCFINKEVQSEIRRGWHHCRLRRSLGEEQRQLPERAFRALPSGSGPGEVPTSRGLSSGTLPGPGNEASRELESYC

B1: mt-172 (peptide)
peptide: Y[Aib]QGTFTSDYSIYLDEQAAKEFVC(PEG 40 kDa)WLLAG-NH2
modifications: lactam 16-20
B2: mt-178 (peptide)
peptide: Y[Aib]EGTFTSDYSIYLDEQAAKEFVNWLLAGGPSSGAPPPSC([maleimide-PEG 40 kDa])-NH2
modifications: lactam 16-20
B3: mt-201 (peptide)
peptide: Y[Aib]QGTFTSDYSIYLDEEAVRLFVNWLLAGGPSSGAPPPS-NH2
modifications: N-terminus assumed
SMILES: CC[C@H](C)[C@H](NC(=O)[C@H](CO)NC(=O)[C@H](Cc1ccc(O)cc1)NC(=O)[C@H](CC(=O)O)NC(=O)[C@H](CO)NC(=O)[C@@H](NC(=O)[C@H](Cc1ccccc1)NC(=O)[C@@H](NC(=O)CNC(=O)[C@H](CCC(N)=O)NC(=O)C(C)(C)NC(=O)[C@@H](N)Cc1ccc(O)cc1)[C@@H](C)O)[C@@H](C)O)C(=O)N[C@@H](Cc1ccc(O)cc1)C(=O)N[C@@H](CC(C)C)C(=O)N[C@@H](CC(=O)O)C(=O)N[C@@H](CCC(=O)O)C(=O)N[C@@H](CCC(=O)O)C(=O)N[C@@H](C)C(=O)N[C@H](C(=O)N[C@@H](CCCNC(=N)N)C(=O)N[C@@H](CC(C)C)C(=O)N[C@@H](Cc1ccccc1)C(=O)N[C@H](C(=O)N[C@@H](CC(N)=O)C(=O)N[C@@H](Cc1c[nH]c2ccccc12)C(=O)N[C@@H](CC(C)C)C(=O)N[C@@H](CC(C)C)C(=O)N[C@@H](C)C(=O)NCC(=O)NCC(=O)N1CCC[C@H]1C(=O)N[C@@H](CO)C(=O)N[C@@H](CO)C(=O)NCC(=O)N[C@@H](C)C(=O)N1CCC[C@H]1C(=O)N1CCC[C@H]1C(=O)N1CCC[C@H]1C(=O)N[C@@H](CO)C(N)=O)C(C)C)C(C)C
B4: mt-175 (peptide)
peptide: Y[Aib]QGTFTSDYSIYLDEQAAKEFVC(PEG 40 kDa)WLLAGGPSSGAPPPS-NH2
modifications: lactam 16-20
B5: mt-174 (peptide)
peptide: Y[Aib]EGTFTSDYSIYLDEQAAKEFVNWLLAGGPSSGAPPPSC-NH2
modifications: lactam 16-20; N-terminus assumed
SMILES: CC[C@H](C)[C@H](NC(=O)[C@H](CO)NC(=O)[C@H](Cc1ccc(O)cc1)NC(=O)[C@H](CC(=O)O)NC(=O)[C@H](CO)NC(=O)[C@@H](NC(=O)[C@H](Cc1ccccc1)NC(=O)[C@@H](NC(=O)CNC(=O)[C@H](CCC(=O)O)NC(=O)C(C)(C)NC(=O)[C@@H](N)Cc1ccc(O)cc1)[C@@H](C)O)[C@@H](C)O)C(=O)N[C@@H](Cc1ccc(O)cc1)C(=O)N[C@@H](CC(C)C)C(=O)N[C@@H](CC(=O)O)C(=O)N[C@H]1CCC(=O)NCCCC[C@@H](C(=O)N[C@@H](CCC(=O)O)C(=O)N[C@@H](Cc2ccccc2)C(=O)N[C@H](C(=O)N[C@@H](CC(N)=O)C(=O)N[C@@H](Cc2c[nH]c3ccccc23)C(=O)N[C@@H](CC(C)C)C(=O)N[C@@H](CC(C)C)C(=O)N[C@@H](C)C(=O)NCC(=O)NCC(=O)N2CCC[C@H]2C(=O)N[C@@H](CO)C(=O)N[C@@H](CO)C(=O)NCC(=O)N[C@@H](C)C(=O)N2CCC[C@H]2C(=O)N2CCC[C@H]2C(=O)N2CCC[C@H]2C(=O)N[C@@H](CO)C(=O)N[C@@H](CS)C(N)=O)C(C)C)NC(=O)[C@H](C)NC(=O)[C@H](C)NC(=O)[C@H](CCC(N)=O)NC1=O
B6: mt-198 (peptide)
peptide: [Aib]QGTFTSDYSIYLDEQAAKEFVNWLLAG-NH2
modifications: lactam 15-19; N-terminus assumed
SMILES: CC[C@H](C)[C@H](NC(=O)[C@H](CO)NC(=O)[C@H](Cc1ccc(O)cc1)NC(=O)[C@H](CC(=O)O)NC(=O)[C@H](CO)NC(=O)[C@@H](NC(=O)[C@H](Cc1ccccc1)NC(=O)[C@@H](NC(=O)CNC(=O)[C@H](CCC(N)=O)NC(=O)C(C)(C)N)[C@@H](C)O)[C@@H](C)O)C(=O)N[C@@H](Cc1ccc(O)cc1)C(=O)N[C@@H](CC(C)C)C(=O)N[C@@H](CC(=O)O)C(=O)N[C@H]1CCC(=O)NCCCC[C@@H](C(=O)N[C@@H](CCC(=O)O)C(=O)N[C@@H](Cc2ccccc2)C(=O)N[C@H](C(=O)N[C@@H](CC(N)=O)C(=O)N[C@@H](Cc2c[nH]c3ccccc23)C(=O)N[C@@H](CC(C)C)C(=O)N[C@@H](CC(C)C)C(=O)N[C@@H](C)C(=O)NCC(N)=O)C(C)C)NC(=O)[C@H](C)NC(=O)[C@H](C)NC(=O)[C@H](CCC(N)=O)NC1=O
B7: mt-197 (peptide)
peptide: GTFTSDYSIYLDEQAAKEFVNWLLAG-NH2
modifications: lactam 13-17; N-terminus assumed
SMILES: CC[C@H](C)[C@H](NC(=O)[C@H](CO)NC(=O)[C@H](Cc1ccc(O)cc1)NC(=O)[C@H](CC(=O)O)NC(=O)[C@H](CO)NC(=O)[C@@H](NC(=O)[C@H](Cc1ccccc1)NC(=O)[C@@H](NC(=O)CN)[C@@H](C)O)[C@@H](C)O)C(=O)N[C@@H](Cc1ccc(O)cc1)C(=O)N[C@@H](CC(C)C)C(=O)N[C@@H](CC(=O)O)C(=O)N[C@H]1CCC(=O)NCCCC[C@@H](C(=O)N[C@@H](CCC(=O)O)C(=O)N[C@@H](Cc2ccccc2)C(=O)N[C@H](C(=O)N[C@@H](CC(N)=O)C(=O)N[C@@H](Cc2c[nH]c3ccccc23)C(=O)N[C@@H](CC(C)C)C(=O)N[C@@H](CC(C)C)C(=O)N[C@@H](C)C(=O)NCC(N)=O)C(C)C)NC(=O)[C@H](C)NC(=O)[C@H](C)NC(=O)[C@H](CCC(N)=O)NC1=O
B8: mt-182 (peptide)
peptide: Y[Aib]QGTFISDYSIYLDEQAAKEFVNWLLAGGPSSGAPPPSC(PEG 40 kDa)-NH2
modifications: lactam 16-20
B9: mt-176 (peptide)
peptide: Y[Aib]QGTFISDYSIYLDEQAAKEFVNWLLAGGPSSGAPPPSC-NH2
modifications: lactam 16-20
B10: mt-186 (peptide)
peptide: Y[Aib]QGTFTSDYSIYLDEQAAKEFVC(PEG 40 kDa″)WLMNG-NH2
modifications: lactam 16-20
B11: mt-191 (peptide)
peptide: Y[Aib]QGTFTSDYSIYLDEQAAKEFVNWLLAGGPSSGAPPPS-NH2
modifications: N-terminus assumed
SMILES: CC[C@H](C)[C@H](NC(=O)[C@H](CO)NC(=O)[C@H](Cc1ccc(O)cc1)NC(=O)[C@H](CC(=O)O)NC(=O)[C@H](CO)NC(=O)[C@@H](NC(=O)[C@H](Cc1ccccc1)NC(=O)[C@@H](NC(=O)CNC(=O)[C@H](CCC(N)=O)NC(=O)C(C)(C)NC(=O)[C@@H](N)Cc1ccc(O)cc1)[C@@H](C)O)[C@@H](C)O)C(=O)N[C@@H](Cc1ccc(O)cc1)C(=O)N[C@@H](CC(C)C)C(=O)N[C@@H](CC(=O)O)C(=O)N[C@@H](CCC(=O)O)C(=O)N[C@@H](CCC(N)=O)C(=O)N[C@@H](C)C(=O)N[C@@H](C)C(=O)N[C@@H](CCCCN)C(=O)N[C@@H](CCC(=O)O)C(=O)N[C@@H](Cc1ccccc1)C(=O)N[C@H](C(=O)N[C@@H](CC(N)=O)C(=O)N[C@@H](Cc1c[nH]c2ccccc12)C(=O)N[C@@H](CC(C)C)C(=O)N[C@@H](CC(C)C)C(=O)N[C@@H](C)C(=O)NCC(=O)NCC(=O)N1CCC[C@H]1C(=O)N[C@@H](CO)C(=O)N[C@@H](CO)C(=O)NCC(=O)N[C@@H](C)C(=O)N1CCC[C@H]1C(=O)N1CCC[C@H]1C(=O)N1CCC[C@H]1C(=O)N[C@@H](CO)C(N)=O)C(C)C

The target of the first test is GLP-1 receptor (UniProt P43220 24-463, limits assumed). Briefly: cell-based or functional assay.
Regarding B1, the “EC50” value stood at 0.859 nM and the relative activity is 3.43%.
In the same order, the values of B2 are 0.171 nM and 8.19%.
In the same order, the values of B3 are 0.012 nM and 192%.
In the same order, the values of B4 are 0.22 nM and 5.91%.
With B5, the “EC50” value is 0.017 nM and the relative activity was 118%.
The like results for B6 were, in that order, 13.2 nM and 0.17%.
The like results for B7 were, in that order, 35.3 nM and 0.07%.
In the case of B8, a half-maximal response (EC50) required 10 nM.
Still for that read-out and setting: the value for B9 was 8.69 nM.
In the case of B10, the “EC50” value was 0.5 nM and the relative activity turned out to be 2.8%.
As to B11, the “EC50” value was 0.011 nM and the relative activity is 209%.

In another test the target is glucagon receptor (UniProt P47871 26-477, limits assumed). Briefly: cell-based or functional assay.
Chain of glucagon receptor (P47871 26-477 limits assumed): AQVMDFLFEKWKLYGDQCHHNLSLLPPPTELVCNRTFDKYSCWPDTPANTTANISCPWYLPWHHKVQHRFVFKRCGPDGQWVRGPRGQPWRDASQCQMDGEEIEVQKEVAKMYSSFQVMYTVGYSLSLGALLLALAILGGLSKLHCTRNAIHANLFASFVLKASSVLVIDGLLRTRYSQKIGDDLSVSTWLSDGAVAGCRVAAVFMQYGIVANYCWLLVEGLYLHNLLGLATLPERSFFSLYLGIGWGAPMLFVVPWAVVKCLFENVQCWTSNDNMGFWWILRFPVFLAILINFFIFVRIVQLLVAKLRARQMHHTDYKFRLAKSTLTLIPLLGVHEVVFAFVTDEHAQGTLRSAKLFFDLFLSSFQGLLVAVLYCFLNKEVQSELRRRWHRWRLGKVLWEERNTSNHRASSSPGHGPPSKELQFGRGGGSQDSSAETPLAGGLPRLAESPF
B1: the “EC50” value was found to be 9.16 nM and the relative activity came to 0.45%.
In the same order, the values of B2 are 8.25 nM and 0.42%.
The like results for B3 were, in that order, 26.7 nM and 0.24%.
In the case of B4, the concentration for a half-maximal effect (EC50) amounted to 2.42 nM and the relative activity was found to be 1.49%.
In the same order, the values of B5 are 57.5 nM and 0.06%.
The like results for B6 were, in that order, 11.9 nM and 0.53%.
In the same order, the values of B7 are 47.7 nM and 0.13%.
As to B9, the “EC50” value was 0.141 nM.
For the molecule B10, a half-maximal response (EC50) required 1.58 nM and the relative activity is 2.22%.
Regarding B11, it took 1.46 nM to reach a half-maximal effect (EC50) and the relative activity was 4.32%.

Another test addresses T1, GIP receptor. Briefly: cell-based or functional assay.
For the molecule B1, the “EC50” value is 7.54 nM and the relative activity was 0.25%.
Turning to B2, the “EC50” value came out at 0.448 nM and the relative activity was 4.69%.
For the molecule B3, the response was half-maximal at 0.072 nM (EC50) and the relative activity was 44.4%.
The like results for B4 were, in that order, 1.93 nM and 0.93%.
The like results for B5 were, in that order, 0.023 nM and 95.7%.
In the same order, the values of B6 are 149 nM and 0.02%.
B8: the “EC50” value is 0.08 nM.
On the same count and under the same terms, the value for B9 was 0.055 nM.
Consider B10, for which the “EC50” value amounted to 15.2 nM and the relative activity was 0.14%.
In the same order, the values of B11 are 0.189 nM and 16.9%.

Usually EC50 stands for the midpoint of the concentration-response curve.

The values above are taken from patent publication US20110166062A1 (INDIANA UNIVERSITY RESEARCH AND TECHNOLOGY, published 2011).
